Key:
[1] = biological target: T1, vaccinia virus recombinant B5 protein (vaccinia virus, UniProt Q01227 20-275); test: ELISA, B5 capture, IgG detect (luminescence) [C]
[2] = biological target: T1, vaccinia virus recombinant B5 protein; test: surface plasmon resonance; format not stated; target taken from the text

B1: Ch8AH8AL (antibody, V domains shown)
VH: EVQLVESGGGLIKPGGSLRLSCAASGFIFRDYNINWVRQAPGKGLEWLGFIRTRASGRSTEYSASVKGRFTISRDDSKNIAYLHINSLKMEDTAVYYCAKKGDSYYYMDFWGKGTAVTVSS
VL: ELALTQPASVSGSPGQSITISCTGGRSDLGDSNFVSWYQQYPGKAPKLLIYQVNKRPSGVPDRFSASKSANTASLTISGLQTEDEADYFCSSYTTTSTYVFGIGTKVVVLG
Question: How did the “EC50 (read off the curve)” value [1] turn out when B1 was run?
Answer: ~0.03 µg/mL

Question: What about the Kd [2] of the same binder?
Answer: ≤ 0.6 nM

Question: What about the koff [2] of the same binder?
Answer: ≤ 1e-05 s⁻¹

Question: And the kon [2]?
Answer: 20000 M⁻¹ s⁻¹
